How the values were obtained:
[1] = target: ΔC11, C-terminal 11 AA truncated AgsA, His-tagged (Salmonella enterica serovar Typhimurium); test: SEC; Superdex 200 XK 16/70, 20 mM Tris-HCl pH 8.0, 1 mM EDTA, 100 mM NaCl, run at 37°C
[2] = target: ΔC11, C-terminal 11 AA truncated AgsA, His-tagged (Salmonella enterica serovar Typhimurium); test: SEC; Superdex 200 XK 16/70, 20 mM Tris-HCl pH 8.0, 1 mM EDTA, 100 mM NaCl, run at 42°C
[3] = target: ΔC11, C-terminal 11 AA truncated AgsA, His-tagged (Salmonella enterica serovar Typhimurium); test: SEC
[4] = target: AgsA (aggregation-suppressing protein, small heat shock protein), wild type, His-tagged (Salmonella enterica serovar Typhimurium); test: SEC; Superdex 200 XK 16/70, 20 mM Tris-HCl pH 8.0, 1 mM EDTA, 100 mM NaCl, run at 25°C; apparent mass from a calibration curve
[5] = target: AgsA (aggregation-suppressing protein, small heat shock protein), wild type, His-tagged (Salmonella enterica serovar Typhimurium); test: FRET or BRET; data not shown; subunit exchange of fluorescein- and rhodamine-labelled AgsA at 45°C, 40 min

| Substance | stoichiometry N [1] [subunits] | stoichiometry N [2] [subunits] | stoichiometry N [3] [subunits] | stoichiometry N [4] [subunits] | decrease in donor fluorescence after 40 min [5] [%] |
| --- | --- | --- | --- | --- | --- |
| ΔC11, C-terminal 11 AA truncated AgsA, His-tagged (domain or fragment) | 2 | 2 | 3 |  |  |
| AgsA (aggregation-suppressing protein, small heat shock protein), wild type, His-tagged (natural protein) |  |  |  | 22 | 40 |

From publication PMC2920228
